Test results from paper PMC6695453, “Peptide translocation by the lysosomal ABC transporter TAPL is regulated by coupling efficiency and activation energy” (Scientific Reports, 2019).
Side chains are listed from the residue outwards. Ends that are not written are not given here.

Legend:
[1] = target: T1, TAPL (Homo sapiens, UniProt Q9NP78); assay: Peptide transport into TAPL proteoliposomes; type: biochemical; conditions: read-out: Km(Pep) of 9-mer transport with GTP; 3 mM GTP, 15 min, 37 °C, proteoliposomes; triplicates, SD
T1 construct: Human coreTAPL (Q9NP78 UniProt, amino acid 143–766) fused C-terminally to mVenus; made in house; host or cells: Pichia pastoris SMD1168-His+
T1 sequence (Q9NP78 143-766): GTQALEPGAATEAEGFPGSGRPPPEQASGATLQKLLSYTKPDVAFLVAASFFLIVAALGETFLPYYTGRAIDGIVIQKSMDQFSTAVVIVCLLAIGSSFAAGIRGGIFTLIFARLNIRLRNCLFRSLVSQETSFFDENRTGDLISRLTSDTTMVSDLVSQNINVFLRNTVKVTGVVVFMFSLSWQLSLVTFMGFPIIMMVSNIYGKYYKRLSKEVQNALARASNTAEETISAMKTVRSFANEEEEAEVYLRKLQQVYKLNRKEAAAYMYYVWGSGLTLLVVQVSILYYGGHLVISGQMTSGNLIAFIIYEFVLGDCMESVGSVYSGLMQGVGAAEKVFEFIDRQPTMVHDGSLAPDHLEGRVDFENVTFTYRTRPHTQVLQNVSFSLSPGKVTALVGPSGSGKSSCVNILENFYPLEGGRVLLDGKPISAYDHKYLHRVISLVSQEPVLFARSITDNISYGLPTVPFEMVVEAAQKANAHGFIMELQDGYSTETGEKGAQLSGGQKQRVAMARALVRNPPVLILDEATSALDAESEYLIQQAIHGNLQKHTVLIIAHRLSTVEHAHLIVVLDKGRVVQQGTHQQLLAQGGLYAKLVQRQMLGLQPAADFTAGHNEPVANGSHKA
Experimental: (A) Proteoliposomes (0.5 mg/ml lipids) were incubated with 10 µM of 9-mer^FL peptide and 3 mM ATP, 3 mM ADP, without any nucleotide (−) or with 3 mM ATP in the presence of ortho-vanadate (Vi, 500 µM). […] […] Transport was performed in triplicates with error bars indicating SD.
CoreTAPL fused C-terminally to mVenus was produced in P. pastoris by large scale expression in a 7.5 liter Labfors4 reactor (Infors HT, Einsbach, Germany) by fed batch method and cell pellets were stored at −80 °C[14],[44]. Core[…] fused C-terminally to mVenus was produced in P. pastoris in Erlenmeyer flasks. TmrAB from T. thermophilus was expressed in Escherichia coli and cell pellets were stored at −80 °C[30]. CoreTAPL and TmrAB were purified and reconstituted (40:1 (wt/wt) lipid to protein) as described into unilamellar liposomes composed of E. coli polar lipids and DOPC (7:3 (wt/wt); Avanti Polar Lipids), which were ultrasonicated, five times frozen and thawed and extruded through a 400 nm polycarbonate filter (Avestin, Mannheim, Germany)[13],[14],[30]. Proteoliposomes were snap frozen in liquid nitrogen and stored at −80 °C. […] Concentration of coreTAPL and core[…] was determined by specific absorption of mVenus (ε515 = 45.950 M^−1cm^−1). For calculation of TmrAB concentration ε280 = 159.630 M^−1cm^−1 was applied.

[2] = target: T2, coreTAPL (core complex of the transporter associated with antigen processing-like, ABCB9) fused C-terminally to mVenus (human) (UniProt Q9NP78)
T2 sequence: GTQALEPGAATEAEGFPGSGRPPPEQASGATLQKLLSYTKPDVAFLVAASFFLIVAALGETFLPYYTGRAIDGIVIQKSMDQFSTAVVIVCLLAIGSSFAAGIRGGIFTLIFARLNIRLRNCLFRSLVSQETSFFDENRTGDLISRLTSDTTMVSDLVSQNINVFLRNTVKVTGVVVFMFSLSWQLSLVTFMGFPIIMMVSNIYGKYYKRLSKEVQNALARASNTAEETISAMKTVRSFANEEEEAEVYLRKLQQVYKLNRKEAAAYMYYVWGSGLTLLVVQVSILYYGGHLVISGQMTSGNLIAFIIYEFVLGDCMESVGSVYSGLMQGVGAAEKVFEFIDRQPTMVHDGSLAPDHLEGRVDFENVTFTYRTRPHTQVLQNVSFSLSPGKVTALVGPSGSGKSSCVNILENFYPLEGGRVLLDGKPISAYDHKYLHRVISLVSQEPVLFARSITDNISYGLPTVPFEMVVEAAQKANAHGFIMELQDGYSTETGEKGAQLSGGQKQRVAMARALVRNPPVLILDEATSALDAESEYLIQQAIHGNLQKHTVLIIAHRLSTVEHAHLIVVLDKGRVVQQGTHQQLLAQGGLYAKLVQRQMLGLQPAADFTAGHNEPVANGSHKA

[3] = target: T2, coreTAPL (core complex of the transporter associated with antigen processing-like, ABCB9) fused C-terminally to mVenus (human); remark: listed apart in the source
[4] = target: T2, coreTAPL (core complex of the transporter associated with antigen processing-like, ABCB9) fused C-terminally to mVenus (human); remark: listed apart in the source
[5] = target: T3, coreTAPL (core complex of the transporter associated with antigen processing-like, ABCB9) fused C-terminally … (human, UniProt Q9NP78 143-766); assay: MST; competition: 100 nM 9-mer^Atto-655 peptide and 10 µM TAPL with unlabeled competitor peptide (18-mer titrated; 9-mer at 4 mM); 22 °C; Ki fitted considering competitor depletion; conditions: both partners purified
T3 construct: TAPL (ABCB9), human, core complex without TMD0, amino acids 143-766 of UniProt Q9NP78; source: reconstituted into proteoliposomes for transport and ATPase assays; not shown: mVenus, C-terminal, kept
T3 sequence (looked up): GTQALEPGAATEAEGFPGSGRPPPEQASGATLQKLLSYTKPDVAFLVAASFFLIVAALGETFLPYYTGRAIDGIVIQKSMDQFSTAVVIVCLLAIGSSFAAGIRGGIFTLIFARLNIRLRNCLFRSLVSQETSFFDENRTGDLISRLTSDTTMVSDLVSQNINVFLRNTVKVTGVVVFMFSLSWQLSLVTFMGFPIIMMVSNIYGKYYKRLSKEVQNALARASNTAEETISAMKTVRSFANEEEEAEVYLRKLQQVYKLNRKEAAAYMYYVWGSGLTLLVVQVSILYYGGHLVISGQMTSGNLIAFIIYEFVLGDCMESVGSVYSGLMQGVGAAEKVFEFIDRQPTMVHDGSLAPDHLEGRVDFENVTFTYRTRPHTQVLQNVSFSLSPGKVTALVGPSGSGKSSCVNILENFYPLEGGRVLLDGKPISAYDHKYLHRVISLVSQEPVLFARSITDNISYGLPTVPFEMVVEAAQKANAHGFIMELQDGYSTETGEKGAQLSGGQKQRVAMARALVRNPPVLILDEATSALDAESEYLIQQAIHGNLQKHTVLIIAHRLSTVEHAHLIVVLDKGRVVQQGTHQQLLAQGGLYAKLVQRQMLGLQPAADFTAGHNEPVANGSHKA

[6] = target: T3, coreTAPL (core complex of the …); assay: cell-based or functional assay
[7] = target: T3, coreTAPL (core complex of the …); assay: MST; 100 nM 9-mer^Atto-655 peptide with increasing TAPL concentrations; 20 mM HEPES, 140 mM NaCl, 0.05% DDM, 15% glycerol, pH 7.5; 22 °C; one-site binding model; conditions: both partners purified

## RRYC^FluoresceinKSTEL [9-mer^FL, fluorescein labeled 9-mer peptide]
[1]
  Km: 4.4 ± 0.8 µM

## RRYC(5‑iodoacetamidofluorescein)KSTEL [fluorescein labeled 9-mer peptide RRYC^FluoresceinKSTEL]
[2]
  K (m(Pep)) of 9-mer^FL peptide transport into TAPL proteoliposomes at 24 °C, 3 mM ATP: 10.8 µM
  K (m(Pep)) of 9-mer^FL peptide transport into TAPL proteoliposomes at 33 °C, 3 mM ATP: 15.3 µM
  K (m(Pep)) of 9-mer^FL peptide transport into TAPL proteoliposomes at 42 °C, 3 mM ATP: 17.3 µM
[3]
  K (m(pep)) of 9-mer transport into TAPL proteoliposomes in the presence of 3 mM GTP: 4.4 µM
[4]
  K (m(Pep)) of peptide transport into TAPL proteoliposomes, 3 mM ATP, 15 min, 37 °C: 15 µM

## RYC(5‑iodoacetamidofluorescein)K([Lys-Lys-Lys-Lys-Lys-Lys-Lys-Lys])STEL (also: octa-lysine attached by isopeptide bonds) [fluorescein labeled branched 16-mer peptide RYCK(K)8STEL]
[4]
  K (m(Pep)) of peptide transport into TAPL proteoliposomes, 3 mM ATP, 15 min, 37 °C: 8 µM

## RRYQKSTELRRYC(5‑iodoacetamidofluorescein)KSTEL [fluorescein labeled 18-mer peptide …]
[4]
  K (m(Pep)) of peptide transport into TAPL proteoliposomes, 3 mM ATP, 15 min, 37 °C: 7 µM

## RYCK([Lys-Lys-Lys-Lys-Lys-Lys-Lys-Lys])STEL (also: octa-lysine attached by isopeptide bonds) [branched 16-mer peptide RYCK(K8)STEL]
[4]
  IC50 of inhibition of ATP hydrolysis of reconstituted TAPL by peptide (malachite green assay, 3 mM ATP, 37 °C): 22 µM

B1: 18-mer peptide RRYQKSTELRRYQKSTEL (peptide)
peptide: RRYQKSTELRRYQKSTEL
notes: also called unlabeled 18-mer peptide; source: synthetic peptide (solid phase synthesis; Charité, Berlin)
[5]
  Ki: 11.8 ± 3.6 µM
[6]
  IC50 of inhibition of ATP hydrolysis of reconstituted TAPL by peptide (malachite green assay, 3 mM ATP, 37 °C): 15 µM

B2: Atto-655 labeled 9-mer peptide RRYC^Atto-655KSTEL (peptide)
peptide: RRYC(Atto‑655 maleimide)KSTEL
notes: source: synthetic peptide (solid phase synthesis)
[7]
  Kd: 5.4 ± 0.8 µM
